The supplement of paper PMC9170038

Tested on: MS2 coat protein
Test: apparent KD of MS2 coat protein; designed switch direction (-1 OFF switch, 1 ON switch): -1; higher = weaker reporter binding
In short: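 For each design, the apparent KD is the median over clusters of curves fitted to normalised cluster fluorescence. Clusters held RNA switches with common flanks, transcribed on Illumina chips by stalled E. coli RNA polymerase. These were titrated with SNAP-549-labelled MS2 coat protein, doubling from 0.7 or 1.5 nM to 3 µM, without input, with 200 uM small-molecule ligand, or with an oligonucleotide input.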

[1] = input ligand: microRNA oligo, concentration not stated
[2] = Eterna round: R95, input ligand: microRNA oligo, concentration not stated
[3] = Eterna round: R95, input ligand: FMN 200 uM
[4] = Eterna round: R95, input ligand: none

Sequence | apparent KD of MS2 coat protein (input ligand: FMN 200 uM) | apparent KD of MS2 coat protein [1] | apparent KD of MS2 coat protein (input ligand: none) | apparent KD of MS2 coat protein [2] | apparent KD of MS2 coat protein [3] | apparent KD of MS2 coat protein [4]
UUAAAUCAUGUAGGAUAUGCGUGGCGAAGCUAUGCAGAAGGACAUGAGGAUCACCCAUGUGCUUCCGUCUGCGUACAGACGGUA [JL ENG1 1.14] (Eterna round: R96, puzzle: Exclusion NG 1) | 258 nM | 79.2 nM | 91.2 nM |  |  | 
CCUCCACAUGAGGAUCACCCAUGUCAGGAUAUCGCGCGCGCGUUUUCGGUCUUUCGCGCGAGAAGGGACGACUG (puzzle: Exclusion 1) |  |  |  | 29 nM |  | 
AGGUAGUCAGGAUAUUAGGAGUAGCGGGAUAACGCUACGAGUGAGAAGGGACAUGAGGAUCACCCAUGUUUUGU [JR_Ex4_Sub068] (Eterna round: R97, puzzle: Exclusion 4) | 24.3 nM |  | 23.1 nM |  |  | 
AAUCUACAUGUAGGAUAUGCGUGGCAAAGCUAUGCAGAAGGACAUGAGGAUCACCCAUGUUUUAGCGUCUGCGUACAGAUGCGA [Mat - Exclusion NG 1 - Mod of JL - D100] (Eterna round: R96, puzzle: Exclusion NG 1) | 147 nM | 18.4 nM | 27.9 nM |  |  | 
CUUUUGUGAGGAUAUUAGUAGUAAAUGAAUAAAAUUAUUACUGAGAAGGUACAUGAGGAUCACCCAUGUUCCUU [Mat - Exclusion 4 - Eli Mod - D20] (Eterna round: R97, puzzle: Exclusion 4) | 16.3 nM |  | 14.3 nM |  |  | 
ACUUACUGAGGAUAUACAUAGAUUUACAUGAGGAUCACCCAUGUUCCUCUUUGUAUAAAUGUAGAAGGCAGAAGAA [Mat - Exclusion 5 - JL Mod - D58] (Eterna round: R97, puzzle: Exclusion 5) | 177 nM |  | 93.6 nM |  |  | 
GAUCGUUUAGAGGAUAUCAUGCUAAACAUUACAUGAGAAGGCUAGACAUGAGGAUCACCCAUGUAUGCUCGUGA [Exclusion 6 - 9:a] (puzzle: Exclusion 6) |  |  |  | 14 nM | 20.8 nM | 14.8 nM
ACAUGAGGAUCACCCAUGUGCACGUAAUGGCUCAUGUAGAGUGAGGAUAUGCGUGACGAACGAGCGCAGAAGGCACAAGACUGG [Deportation 16 - Jieux - Exclusion NG 3] (Eterna round: R96, puzzle: Exclusion NG 3) | 131 nM | 57.8 nM | 77.5 nM |  |  | 
UUUAGUGGUAAGGAUAUCCUUGAGAAAGAAAGAGGAGAAGGUACCACAUGAGGAUCACCCAUGUGGCUCUUUUA [jl-ex6-4.58 Nando mod] (Eterna round: R97, puzzle: Exclusion 6) | 32.7 nM |  | 18.2 nM |  |  | 
AUAUAGUCAGGAUAUCGAAGUGAGUGUUGGUGGGUAAGGUACGAGAAGGGACAUGAGGAUCACCCAUGUAGGAA [JR_Exclusion4)Sub004] (puzzle: Exclusion 4) |  |  |  | 48 nM |  | 
GCAUCCAUAGUGAGGAUAUACCUCUGGAUACAUAGGUAGAAGGCACAUGAGGAUCACCCAUGUUCCUAGGAUGC [Fiskers BMX 4 - 33] (puzzle: Brourd's mod of Exclusion 4) |  |  |  | 16.9 nM |  | 
AAAGAAACAGGAUAUGUAGGCUGCGACAUGAGGAUCACCCAUGUGUCGGUAUACAGUCCUAUAGAAGGGUUAUGAC [Tieder] (puzzle: Exclusion 5) |  |  |  | 13.1 nM |  | 
AUUUGCACGCUGCGGUCCUACAUGAGGAUCACCCAUGUGGUCUGGUGGCGUGGGUCGCCGGACUUGGCUCGUCUUGA [salish99_S_TOV1_R5_032] (Eterna round: R97, puzzle: Sensor, turn-off variant 1) | 17.5 nM |  | 17.9 nM |  |  | 
GACCAGGAAGGAUAUACAUACGGUUCGUGCCUUGGGCUGCGACAUGAGGAUCACCCAUGUAGAAGGUCCAGGUC [EX2 B.18] (Eterna round: R97, puzzle: Exclusion 2) | 47.1 nM |  | 18.6 nM |  |  | 
AGUGCUAACACGAAAGUGUUAGUACAAUAAGCUUGUGAAACAUGAGGAUCACCCAUGUCCUCAUAAGCUCGUCUUAU [salish99_TOv2_r3_014] (puzzle: Sensor v3, turn-off variant 2) |  |  |  | 651 nM | 17.8 nM | 17.7 nM
CCGUCGGUAGGAUAUGCUAUGCAUGUCGGCGCUAUUUGAGGACAUGAGGAUCACCCAUGUAGAAGGGCCGAGGU [Eternabot (L1) Solution 55] (Eterna round: R97, puzzle: Exclusion 2) | 22.7 nM |  | 15.7 nM |  |  | 
CCAUGUUAGCAGGAUAUGCAAUAAAUCUUUUAAGCAGAAGGGCUUACAUGAGGAUCACCCAUGUAUAAUUUCAA [JR_E6_Sub080] (puzzle: Exclusion 6) |  |  |  | 42.6 nM |  | 

Sequence | apparent KD of MS2 coat protein (input ligand: FMN 200 uM) | apparent KD of MS2 coat protein [1] | apparent KD of MS2 coat protein (input ligand: none) | apparent KD of MS2 coat protein [2] | apparent KD of MS2 coat protein [3] | apparent KD of MS2 coat protein [4]
UAUUAUCAAGCUUGAUCCCACAUGAGGAUCACCCAUGUGCUCGUCUUAUUUCUGUCCUUAUUGUUCUCUCGUCUAAU [JR_STOV1_v2_Sub097] (Eterna round: R97, puzzle: Sensor, turn-off variant 1) | 80.2 nM |  | 94.1 nM |  |  | 
GAGUUAGCGUGAGGAAUAUACAUGAGGAUCACCCAUGUUAGCAAAUAUAUUGCUCGUCUUAUAACAACAAUUAACUC [Alarm 9 - Jieux - Sensor, turn-off variant 1] (Eterna round: R97, puzzle: Sensor, turn-off variant 1) | 13.6 nM |  | 14.3 nM |  |  | 
AAUCAUCAUGUAGGAUAUGCGUGGCGAAGCUAUGCAGAAGGACAUGAGGAUCACCCAUGUUCUUGCGUCUGCGUACAGAUGCAA [Mat - Exclusion NG 1 - Mod of JL - D72] (Eterna round: R96, puzzle: Exclusion NG 1) | 135 nM | 67.7 nM | 72 nM |  |  | 
AUAGGCUGUUUUGUUCGUCACAUGAGGAUCACCCAUGUCUCGAGACUGUGCUUACGUUGCGUGUAUAGUCCGGGUAU [Eternabot (L1) Solution 5] (Eterna round: R97, puzzle: Sensor, turn-off variant 1) | 34.1 nM |  | 36.3 nM |  |  | 
UUUUGCUCAGGAUAUACAUGAGGAUCACCCAUGUAUAUUGAAGAUAAUACAUGGGAAUGUAGAAGGGAGCUCAU [Omei Ex3 Pseudoloop 19] (Eterna round: R97, puzzle: Exclusion 3) | 73.5 nM |  | 156 nM |  |  | 
ACAUGAGGAUCACCCAUGUUCGGCUGGUCCGUUUCGGCUGUCGAGGAUAUAGUUCGGUGUCCGCGCUAGAAGGCGGGAGCCGGC [Aenatbe mod 63] (Eterna round: R96, puzzle: Exclusion NG 3) | 153 nM | 54.5 nM | 78.5 nM |  |  | 
UGUGGAGCUUAGGAUAUUGCUCUACCAAGAGGGCGAGAAGGGAGCACAUGAGGAUCACCCAUGUGGUCCGGAAC [Edoroner] (puzzle: Exclusion 6) |  |  |  | 14.7 nM | 26 nM | 14.6 nM
UCAAGUUUUUUGUUUUUUAACAUGAGGAUCACCCAUGUAUUUUUAUAGUAUGUGUGAAUAAGAUCUCGUGGUCUUAU [JR_SV3TOV1_Sub099] (puzzle: Sensor v3, turn-off variant 1) |  |  |  | 78.1 nM | 31.8 nM | 36.5 nM
AAUGAGCAAGUCAGGAUAUUAAGCCACAGCUGGCGUAAGAAGGGACAUGAGGAUCACCCAUGUUCAUCCAAUGG [Eternabot (Original) Solution 15] (Eterna round: R97, puzzle: Brourd's mod of Exclusion 4) | 24.5 nM |  | 15.9 nM |  |  | 
CUGAGCAGACGGAGAUCCAACAUGAGGAUCACCCAUGUCUCAUAAGCUUUUUGCUCAUCUUAUUGUACCUUGGUGCA [Mat - Sensor v3 - turn-off var 1 - JL Mod - D21] (puzzle: Sensor v3, turn-off variant 1) |  |  |  | 15.6 nM | 426 nM | 290 nM
GGCGACCUAGGAUAUACAUGAGGAUCACCCAUGUUUAUCUAUUAGAUGAAGACGGGUUGUAGAAGGAGGAUAUU [JL Geriin mod] (puzzle: Exclusion 3) |  |  |  | 14.6 nM |  | 
UAACCCGCGCGAGGAUAUCACAUGAGGAUCACCCAUGUGGCACUCCGUCACCGGGCAGUCCCGAGUGAGAAGGUGCAGGCGGGA [Bireisen] (Eterna round: R96, puzzle: Exclusion NG 2) | 62.8 nM | 22.1 nM | 26 nM |  |  | 
GCGUUCUGAGGAUAUACAUGAGGAUCACCCAUGUUGAGAAAUAAGAAUAAGCCCUUAAGUAGAAGGCAGAGUGC [JR_Ex3_Sub073] (Eterna round: R97, puzzle: Exclusion 3) | 105 nM |  | 27.8 nM |  |  | 
GCGCAAACGCCAAAAGGCGAAACAACAUGAGGAUCACCCAUGUAGGAUAUCGAUUGCUUUGCAGUCGAGAAGGACAUAAUGCGC [JL ENG3 3.80 Mod 3] (Eterna round: R96, puzzle: Exclusion NG 3) |  | 11.9 nM |  |  |  | 
GGAUAUAACGUAGGAUAUGAGCGCAACUGACGAUCAGAAGGACGACAUGAGGAUCACCCAUGUGAUCUAUCAAUAUUAUACAUG [Prohibition 95 - Jieux - Exclusion NG 1] (Eterna round: R96, puzzle: Exclusion NG 1) | 590 nM | 495 nM | 977 nM |  |  | 
AUGUUGCGAGGAUAUAUAAGGGUAUAAUAAUAAGAUAUGGAACAUGAGGAUCACCCAUGUAGAAGGUGCAUAAC [JR_Ex2_Sub040] (Eterna round: R97, puzzle: Exclusion 2) | 840 nM |  | 21.1 nM |  |  | 
CCGGCUGCUGUGAGGAUAUGCCUGUGGGCCCGCGGGCAGAAGGCACAUGAGGAUCACCCAUGUCCUGCGGUCCC [salish99_bmx4_r4_117] (Eterna round: R97, puzzle: Brourd's mod of Exclusion 4) | 35 nM |  | 33.5 nM |  |  | 
